Measured values as given in patent US10064926B2, “Peptides and combination of peptides for use in immunotherapy against hepatocellular carcinoma (HCC) and other cancers” (Immatics biotechnologies GmbH, priority 2014, dated 2018).

Target: HLA-A*02 (Homo sapiens, UniProt P04439, D140Y/D185E/D98H/E176V/E277Q/G131W/G231S/I119V/I121R/I166T/I218V/N151K/N90K/P208A/P217A/Q86G/Q94H/R138H/R169H)
Assay: UV-ligand exchange / peptide binding to MHC class I (beta2m ELISA)
Settings: peptide exchange yield
Excerpt: Candidate peptides for T cell based therapies according to the present invention were further tested for their MHC binding capacity (affinity). The individual peptide-MHC complexes were produced by UV-ligand exchange, where a UV-sensitive peptide is cleaved upon UV-irradiation, and exchanged with the peptide of interest as analyzed. Only peptide candidates that can effectively bind and stabilize the peptide-receptive MHC molecules prevent dissociation of the MHC complexes. To determine the yield of the exchange reaction, an ELISA was performed based on the detection of the light chain (β2m) of stabilized MHC complexes. The assay was performed as generally described in Rodenko et al. (Rodenko B, Toebes M, Hadrup S R, van Esch W J, Molenaar A M, Schumacher T N, Ovaa H. Generation of peptide-MHC class I complexes through UV-mediated ligand exchange. Nat Protoc. 2006; 1(3):1120-32).
96 well MAXISorp plates (NUNC) were coated over night with 2 ug/ml streptavidin in PBS at room temperature, washed 4× and blocked for 1 h at 37° C. in 2% BSA containing blocking buffer. Refolded HLA-A*0201/MLA-001 monomers served as standards, covering the range of 15-500 ng/ml. Peptide-MHC monomers of the UV-exchange reaction were diluted 100 fold in blocking buffer. Samples were incubated for 1 h at 37° C., washed four times, incubated with 2 ug/ml HRP conjugated anti-β2m for 1 h at 37° C., washed again and detected with TMB solution that is stopped with […]. Absorption was measured at 450 nm. Candidate peptides that show a high exchange yield (preferably higher than 50%, most preferred higher than 75%) are generally preferred for a generation and production of antibodies or fragments thereof, and/or T cell receptors or fragments thereof, as they show sufficient avidity to the MHC molecules and prevent dissociation of the MHC complexes.

Row | Substance | Peptide exchange (MHC class I binding score) (Table 10B, HLA-A*02 peptides) | Peptide exchange (MHC class I binding score) (Table 10A, UV-ligand exchange, β2m ELISA)
1 | 160 (RLLAKIICL; listed as Homo sapiens) [compound 160] | “++” (≥20% = ++) | –
2 | 294 (RLIDLHTNV; listed as Homo sapiens) [compound 294] | “++++” (≥75% = ++++) | –
3 | 275 (ALIEGAGILL; listed as Homo sapiens) [compound 275] | “+++” (≥50 = +++) | –
4 | 221 (ALCEENMRGV; listed as Homo sapiens) [compound 221] | “+++” (≥50 = +++) | +++ (50%-75% = +++)
5 | 284 (KLDAFVEGV; listed as Homo sapiens) [compound 284] | “+++” (≥50 = +++) | –
6 | 62 (KIAGTNAEV; listed as Homo sapiens) [compound 62] | “++” (≥20% = ++) | –
7 | 229 (KMFESFIESV; listed as Homo sapiens) [compound 229] | “+++” (≥50 = +++) | –
8 | 64 (KILEETLYV; listed as Homo sapiens) [compound 64] | “+++” (≥50 = +++) | –
9 | 56 (GVLPGLVGV; listed as Homo sapiens) [compound 56] | “+++” (≥50 = +++) | –
10 | 179 (YIHNILYEV; listed as Homo sapiens) [compound 179] | “++++” (≥75% = ++++) | –
11 | 272 (QQLDSKFLEQV; listed as Homo sapiens) [compound 272] | “+++” (≥50 = +++) | –
12 | 127 (VLIGSNHSL; listed as Homo sapiens) [compound 127] | “++++” (≥75% = ++++) | –
13 | 250 (NLAEVVERV; listed as Homo sapiens) [compound 250] | “++++” (≥75% = ++++) | –
14 | 111 (TVMDIDTSGTFNV; listed as Homo sapiens) [compound 111] | “+++” (≥50 = +++) | –
15 | 49 (FLYPEKDEPT; listed as Homo sapiens) [compound 49] | “++” (≥20% = ++) | –
16 | 267 (ALNENINQV; listed as Homo sapiens) [compound 267] | “+++” (≥50 = +++) | –
17 | 136 (ALLNQHYQV; listed as Homo sapiens) [compound 136] | “+++” (≥50 = +++) | –
18 | 70 (KLLDLETERILL; listed as Homo sapiens) [compound 70] | “++++” (≥75% = ++++) | –
19 | 24 (SLAEEKLQASV; listed as Homo sapiens) [compound 24] | “+++” (≥50 = +++) | –
20 | 110 (TVGGSEILFEV; listed as Homo sapiens) [compound 110] | “++++” (≥75% = ++++) | –
21 | 147 (GLAPGGLAVV; listed as Homo sapiens) [compound 147] | “+++” (≥50 = +++) | –
22 | 71 (KLLDNWDSV; listed as Homo sapiens) [compound 71] | “++++” (≥75% = ++++) | –
23 | 239 (FLLGFIPAKA; listed as Homo sapiens) [compound 239] | “+++” (≥50 = +++) | –
24 | 178 (YIFTTPKSV; listed as Homo sapiens) [compound 178] | “+++” (≥50 = +++) | –
25 | 172 (SLLNFLQHL; listed as Homo sapiens) [compound 172] | “+++” (≥50 = +++) | –
26 | 286 (KVLDKVFRA; listed as Homo sapiens) [compound 286] | “++++” (≥75% = ++++) | –
27 | 102 (SLWSVARGV; listed as Homo sapiens) [compound 102] | “+++” (≥50 = +++) | –
28 | 240 (FLWERPTLLV; listed as Homo sapiens) [compound 240] | “+++” (≥50 = +++) | –
29 | 243 (GLLDNPELRV; listed as Homo sapiens) [compound 243] | “+++” (≥50 = +++) | –

More lines, now with the values ahead:

Row | Peptide exchange (MHC class I binding score) (Table 10B, HLA-A*02 peptides) | Peptide exchange (MHC class I binding score) (Table 10A, UV-ligand exchange, β2m ELISA) | Substance
30 | “+++” (≥50 = +++) | – | 184 (VVLDGGQIVTV; listed as Homo sapiens) [compound 184]
31 | “++++” (≥75% = ++++) | – | 80 (LLYEGKLTL; listed as Homo sapiens) [compound 80]
32 | “++++” (≥75% = ++++) | – | 290 (NLIDLDDLYV; listed as Homo sapiens) [compound 290]
33 | “++” (≥20% = ++) | – | 298 (TMAKESSIIGV; listed as Homo sapiens) [compound 298]
34 | “+++” (≥50 = +++) | – | 266 (SLLESNKDLLL; listed as Homo sapiens) [compound 266]
35 | “++” (≥20% = ++) | – | 93 (RLYTMDGITV; listed as Homo sapiens) [compound 93]
36 | “+++” (≥50 = +++) | – | 46 (AMAEMKVVL; listed as Homo sapiens) [compound 46]
37 | “+++” (≥50 = +++) | – | 257 (SLLEKAGPEL; listed as Homo sapiens) [compound 257]
38 | “++++” (≥75% = ++++) | – | 150 (GLSNLGIKSI; listed as Homo sapiens) [compound 150]
39 | “+++” (≥50 = +++) | – | 40 (ALLAEGITWV; listed as Homo sapiens) [compound 40]
40 | “++++” (≥75% = ++++) | – | 233 (ALLGKLDAI; listed as Homo sapiens) [compound 233]
41 | “++” (≥20% = ++) | – | 89 (RLIEEIKNV; listed as Homo sapiens) [compound 89]
42 | “++++” (≥75% = ++++) | – | 99 (SLSAFLPSL; listed as Homo sapiens) [compound 99]
43 | “+++” (≥50 = +++) | – | 101 (SLWEGGVRGV; listed as Homo sapiens) [compound 101]
44 | “+++” (≥50 = +++) | – | 55 (GLYGRTIEL; listed as Homo sapiens) [compound 55]
45 | “++” (≥20% = ++) | – | 183 (YLYNNEEQVGL; listed as Homo sapiens) [compound 183]
46 | “+++” (≥50 = +++) | – | 151 (HLAKVTAEV; listed as Homo sapiens) [compound 151]
47 | “++” (≥20% = ++) | – | 259 (TLITDGMRSV; listed as Homo sapiens) [compound 259]

Row | Peptide exchange (MHC class I binding score) (Table 10B, HLA-A*02 peptides) | Peptide exchange (MHC class I binding score) (Table 10A, UV-ligand exchange, β2m ELISA) | Substance
48 | “++++” (≥75% = ++++) | – | 231 (RLFNDPVAMV; listed as Homo sapiens) [compound 231]
49 | “++++” (≥75% = ++++) | – | 32 (ALNAVRLLV; listed as Homo sapiens) [compound 32]
50 | “+++” (≥50 = +++) | – | 126 (TLLDSPIKV; listed as Homo sapiens) [compound 126]
51 | “++++” (≥75% = ++++) | – | 58 (ILADLNLSV; listed as Homo sapiens) [compound 58]
52 | “+++” (≥50 = +++) | – | 121 (YLITGNLEKL; listed as Homo sapiens) [compound 121]
53 | “+++” (≥50 = +++) | – | 63 (KIDEKNFVV; listed as Homo sapiens) [compound 63]
54 | “++++” (≥75% = ++++) | – | 124 (LLIDVVTYL; listed as Homo sapiens) [compound 124]
55 | “+++” (≥50 = +++) | – | 169 (SLFEWFHPL; listed as Homo sapiens) [compound 169]
56 | “++++” (≥75% = ++++) | – | 148 (GLFAPLVFL; listed as Homo sapiens) [compound 148]
57 | “+++” (≥50 = +++) | – | 295 (SLFSSPPEI; listed as Homo sapiens) [compound 295]
58 | “++++” (≥75% = ++++) | – | 274 (ALAEALKEV; listed as Homo sapiens) [compound 274]
59 | “+++” (≥50 = +++) | – | 42 (ALLGGNVRMML; listed as Homo sapiens) [compound 42]
60 | “+++” (≥50 = +++) | – | 164 (RMLIKLLEV; listed as Homo sapiens) [compound 164]
61 | “+++” (≥50 = +++) | – | 54 (GLLDPNVKSIFV; listed as Homo sapiens) [compound 54]
62 | “+++” (≥50 = +++) | – | 281 (GLLAGDRLVEV; listed as Homo sapiens) [compound 281]
63 | “+++” (≥50 = +++) | – | 170 (SLHNGVIQL; listed as Homo sapiens) [compound 170]
64 | “++++” (≥75% = ++++) | – | 27 (TLPDFRLPEI; listed as Homo sapiens) [compound 27]
